In the data set the target is ZFP K-Ras G12D (six-finger zinc finger protein) (synthetic construct). Kind of data set: dot blot, 400 ng gDNA of PANC-1 (heterozygous G12D), ZFP 10 ug/ml, TBS-T/milk, RT; much stronger than WT or G13D gDNA. To be noted: tags: N-terminal 3xFLAG, NLS; expressed in E. coli from pET-30a(+). Here is the method:
Genomic DNA (gDNA) was extracted from cancer cells using QIAamp DNA Mini Kit (51104, Qiagen Sciences, Inc., Germantown, MD). Concentration of the gDNA was measured by Qubit dsDNA BR Assay kit (Q32853, Invitrogen™, Thermo Fisher Scientific Inc., Waltham, MA) and adjusted to the same contraction. 400 ng of each gDNA was spotted onto a nitrocellulose membrane (15356, Sigma-Aldrich, Burlington, MA) using narrow-mouth pipette tip. Membranes were allowed to dry and then blocked by soaking in 5% non-fat milk in tris-buffered saline tween (TBS-T) at room temperature (RT) for 1 hour. Blocked membranes were incubated with ZFP ([…]) dissolved in milk/TBS-T for 1 hour at RT. The membranes were washed three times with TBS-T and incubated with anti-FLAG@antibody conjugated with horseradish peroxidase (HRP) (86861S, Cell Signaling Technology, Inc., Danvers, MA). The membranes were then washed three times with TBS-T (15 min×1, 5 min×2) and once with TBS (5 min). The signals were developed with enhanced chemiluminescent (ECL) horseradish peroxidase (HRP) substrate (SuperSignal West Pico PLUS Chemiluminescent Substrate, Catalog #34580, Thermo Fisher Scientific) and captured using the ChemiDoc MP Imaging System (12003154, Bio-Rad Laboratories, Hercules, CA).
FIG. 4 depicts dot blot results showing that the ZFPs from Example 3 can distinguish DNA sequences with one or two point mutations in vitro. […]

Chain of ZFP K-Ras G12D (six-finger zinc finger protein) (synthetic construct) (chain, as listed by the source G12D G12D): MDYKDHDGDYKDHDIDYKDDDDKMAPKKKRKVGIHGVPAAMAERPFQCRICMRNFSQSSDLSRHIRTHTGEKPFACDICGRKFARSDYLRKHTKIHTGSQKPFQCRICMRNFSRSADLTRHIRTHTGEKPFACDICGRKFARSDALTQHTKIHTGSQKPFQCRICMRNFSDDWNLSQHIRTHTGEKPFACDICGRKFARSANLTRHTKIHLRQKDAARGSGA

B1: KRAS G12D target site (codon 12 GAT) (dsDNA)
DNA 1: GAGCTGATGGCGTAGGCA
DNA 2: TGCCTACGCCATCAGCTC
Take B1: the binding result is recorded as “binds”.

For the origin of these results see patent US20250051406, “CELL TARGETING COMPOSITIONS AND METHODS” (The Trustees of Indiana University, published 2025).
